# Patent publication US20130115166A1 (CEPHALON AUSTRALIA, published 2013)
# T1: FLAG-tagged IL-12p40 (human, UniProt P29460 23-328)
# T1 sequence: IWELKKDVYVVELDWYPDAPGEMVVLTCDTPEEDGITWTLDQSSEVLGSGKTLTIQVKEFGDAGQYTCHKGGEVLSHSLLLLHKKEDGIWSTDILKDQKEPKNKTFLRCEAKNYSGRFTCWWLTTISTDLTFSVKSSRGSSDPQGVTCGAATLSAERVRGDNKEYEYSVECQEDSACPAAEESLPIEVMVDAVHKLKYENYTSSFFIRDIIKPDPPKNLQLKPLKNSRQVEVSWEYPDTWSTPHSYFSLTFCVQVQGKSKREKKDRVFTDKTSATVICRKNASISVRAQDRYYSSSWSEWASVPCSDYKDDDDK
# T2: FLAG-tagged IL-23p19 (human, UniProt Q9NPF7 20-189)
# T2 sequence: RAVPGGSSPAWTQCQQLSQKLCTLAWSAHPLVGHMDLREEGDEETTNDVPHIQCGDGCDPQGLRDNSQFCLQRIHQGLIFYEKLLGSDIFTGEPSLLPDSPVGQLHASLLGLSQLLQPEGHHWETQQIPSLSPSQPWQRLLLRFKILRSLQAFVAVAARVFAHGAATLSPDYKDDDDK
# T3: IL-23 (HEK293E-derived) (human, UniProt P29460 23-328; Q9NPF7 20-189)
# T3 sequence 1: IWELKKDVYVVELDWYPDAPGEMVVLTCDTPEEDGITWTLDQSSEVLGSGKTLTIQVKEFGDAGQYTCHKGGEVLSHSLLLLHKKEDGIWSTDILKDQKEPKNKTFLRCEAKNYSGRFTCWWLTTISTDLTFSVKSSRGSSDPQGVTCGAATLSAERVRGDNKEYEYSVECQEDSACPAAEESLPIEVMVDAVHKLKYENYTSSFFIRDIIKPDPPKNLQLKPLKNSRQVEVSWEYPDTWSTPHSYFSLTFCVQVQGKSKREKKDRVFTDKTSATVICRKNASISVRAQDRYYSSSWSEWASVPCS
# T3 sequence 2: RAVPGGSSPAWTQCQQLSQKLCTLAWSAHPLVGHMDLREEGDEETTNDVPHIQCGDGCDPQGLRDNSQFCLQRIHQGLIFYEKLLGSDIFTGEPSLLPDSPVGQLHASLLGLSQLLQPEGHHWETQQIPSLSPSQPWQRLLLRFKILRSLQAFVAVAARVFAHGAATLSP
# T4: Human IL-23 (human, UniProt P29460 23-328; Q9NPF7 20-189)
# T4 construct: Heterodimer of IL-12p40 covalently linked to IL-23p19, purchased (Ebiosciences or RnD Systems); also called hIL-23; rhIL23
# T4 sequence 1: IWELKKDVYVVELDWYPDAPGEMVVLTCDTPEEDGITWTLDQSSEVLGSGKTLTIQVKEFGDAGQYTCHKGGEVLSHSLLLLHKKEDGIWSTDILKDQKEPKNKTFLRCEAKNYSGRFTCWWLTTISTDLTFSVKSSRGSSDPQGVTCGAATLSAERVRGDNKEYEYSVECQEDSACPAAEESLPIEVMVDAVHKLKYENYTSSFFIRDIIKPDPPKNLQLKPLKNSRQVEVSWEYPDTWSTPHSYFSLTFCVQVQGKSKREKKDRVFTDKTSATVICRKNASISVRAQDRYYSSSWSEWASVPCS
# T4 sequence 2: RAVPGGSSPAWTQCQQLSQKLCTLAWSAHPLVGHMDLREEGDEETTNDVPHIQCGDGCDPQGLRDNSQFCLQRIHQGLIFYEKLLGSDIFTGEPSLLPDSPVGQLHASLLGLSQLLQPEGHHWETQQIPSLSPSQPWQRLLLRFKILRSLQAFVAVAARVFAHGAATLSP
# T5: IL-12p40 (human, UniProt P29460 23-328)
# T5 construct: also called IL-12p40 subunit
# T5 sequence: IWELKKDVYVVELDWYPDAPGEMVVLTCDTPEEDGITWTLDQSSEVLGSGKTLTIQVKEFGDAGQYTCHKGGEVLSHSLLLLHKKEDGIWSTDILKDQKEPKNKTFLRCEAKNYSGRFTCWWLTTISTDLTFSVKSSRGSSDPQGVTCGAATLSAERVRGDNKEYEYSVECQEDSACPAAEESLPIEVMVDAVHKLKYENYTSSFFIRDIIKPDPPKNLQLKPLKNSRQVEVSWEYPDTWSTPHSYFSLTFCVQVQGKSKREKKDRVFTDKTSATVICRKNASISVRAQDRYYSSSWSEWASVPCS
# T6: IL-23p19 (human, UniProt Q9NPF7 20-189)
# T6 construct: also called IL-23p19 subunit
# T6 sequence: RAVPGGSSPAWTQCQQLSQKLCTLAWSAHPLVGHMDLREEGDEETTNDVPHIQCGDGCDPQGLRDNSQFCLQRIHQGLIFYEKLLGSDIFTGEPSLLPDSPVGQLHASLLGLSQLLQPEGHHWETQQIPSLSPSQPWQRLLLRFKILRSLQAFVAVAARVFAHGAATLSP
# Key:
# FLAG-tagged IL-12p40 = biological target: T1, FLAG-tagged IL-12p40; test: ELISA, hybridoma supernatant on antigen captured by anti-FLAG M2
# Procedure: (§1) Anti-FLAG M2 antibody (Sigma-Aldrich) was coated onto ELISA plates overnight. These plates were then used to capture individually: FLAG-tagged IL-23p19, FLAG-tagged IL-12p40 and FLAG-tagged IL-23. Hybridoma supernatant from the clones was added and hybridomas that were positive for binding to IL-23 but not IL-12p40 or IL-23p19 were expanded.
# FLAG-tagged IL-23p19 = biological target: T2, FLAG-tagged IL-23p19; test: as above
# Procedure: as §1
# IL-23 (HEK293E-derived) = biological target: T3, IL-23 (HEK293E-derived); test: SPR (Biacore), antibody supernatant captured on Protein A, IL-23 at 5 ug/ml as analyte
# Procedure: As a result of the humanization processes 22 humanized antibodies were produced and tested for their ability to bind human IL-23 (Table 4). Briefly, 2 mL transfections of the 22 humanized antibodies were screened for antibody expression level and binding activity via SPR. Protein A was immobilized onto FC1 and FC2 (or alternatively FC3 and FC4) of a CM5 research grade sensor chip using amine coupling, giving approximately 3000 RU. FC1 was used as a blank throughout the experiments. The experiments were run in HBS-P buffer (SPR). Antibody-containing cell culture supernatants were diluted in 10× HBS-P buffer at a ratio of 9:1. The diluted antibody was injected over FC2 at a flow rate of 20 μl/min. IL-23 (HEK293E-derived) was passed over the surface of FC1 and FC2 at a concentrations of 5 μg/ml as a kinetic injection with 5 min dissociation time across both
# FC. Regeneration of the surface was performed using 10 mM Glycine, pH 1.5. The sensorgram data from FC2 were subtracted from FC1 and a buffer only control. […] The Sequence IDs of the variable heavy and light chains for each antibody are given in the Table 4 along with kd (off-rates) of selected tested antibodies.
# Human IL-23 = biological target: T4, Human IL-23; test: SPR (Biacore 3000), antibody captured on Protein A, IL-23 as analyte, 1:1 Langmuir fit
# Procedure: Using a Biacore 3000, Protein A (Pierce) was immobilized on a CM5 chip using amine coupling chemistry to give 3000 Response Units (RU). Antibody was captured on the surface of the chip in flow cell 2 or 4 with a control surface in flow cell 1 or 3. Human IL-23 was then passed over both flow cells and the response units measured. The surface was then regenerated with 10 mM glycine pH 2.5. For a kinetic run this process was repeated with 5 dilutions of IL-23. Data was double referenced using an injection of running buffer before being fitted using a 1:1 Langmuir equation to determine ka, kd and KD.
# IL-12p40 [1] = biological target: T5, IL-12p40; test: ELISA, coated antigen IL-12p40, mOD at 450 nm; blank = coating antigen omitted [panel 8-22]
# IL-23p19 [2] = biological target: T6, IL-23p19; test: ELISA, coated antigen IL-23p19, mOD at 450 nm; blank = coating antigen omitted [panel 8-22]
# IL-12p40 [3] = biological target: T5, IL-12p40; test: ELISA, coated antigen IL-12p40, mOD at 450 nm; blank = coating antigen omitted [panel 20-4]
# IL-23p19 [4] = biological target: T6, IL-23p19; test: ELISA, coated antigen IL-23p19, mOD at 450 nm; blank = coating antigen omitted [panel 20-4]
# IL-12p40 [5] = biological target: T5, IL-12p40; test: ELISA, coated antigen IL-12p40, mOD at 450 nm; blank = coating antigen omitted [panel 6-22]
# IL-23p19 [6] = biological target: T6, IL-23p19; test: ELISA, coated antigen IL-23p19, mOD at 450 nm; blank = coating antigen omitted [panel 6-22]
Binder,binding result (FLAG-tagged IL-12p40),binding result (FLAG-tagged IL-23p19),koff (IL-23 (HEK293E-derived)) [s⁻¹],Kd (Human IL-23) [nM],koff (Human IL-23) [s⁻¹],kon (Human IL-23) [M⁻¹ s⁻¹],binding result (IL-12p40 [1]),binding result (IL-23p19 [2]),binding result (IL-12p40 [3]),binding result (IL-23p19 [4]),binding result (IL-12p40 [5]),binding result (IL-23p19 [6])
"E11E7 (antibody, V domains shown, Rat monoclonal antibody from a hybridoma; also called rat antibody E11E7) VH: QVQLKESGPGLVQPSQTLSLTCTVSGFSLISYNVHWVRQPRGKGLEWMGVIWTGGSTDYNSVLKSRLSISRDTSKSQVFLKMHSLQTEDIGTYYCARDKYGLFPGYFDYWGQGVMVTVSS VL: DIVMTQSPFSLAVSEGEMVTINCKPSQSLLSSGNRKNYLAWYQQKPGQSPKLLIYYASTRQSGVPDRFIGSGSGTDFTLTISDVQAEDLADYYCLQHFNYPWTFGGGTKLELKR",no binding,no binding,,,,,,,,,,
"8-22 (antibody, human IgG1, kappa, V domains shown, Humanized form of E11E7; also called humanized antibody 8-22) VH: QVQLQESGPGLVKPSETLSLTCTVSGFSLISYNVHWIRQPPGKGLEWIGVIWTGGSTDYNPSLKSRVTISRDTSKNQFSLKLSSVTAADTAVYYCARDKYGLFPGYFDYWGQGTLVTVSS VL: DIVMTQSPDSLAVSLGERATINCKPSQSLLSSGNRKNYLAWYQQKPGQPPKLLIYYASTRQSGVPDRFSGSGSGTDFTLTISSLQAEDVAVYYCLQHFNYPWTFGQGTKLEIKR",,,0.000117,0.421,0.000197,468000,no binding (tested: 10 ug/mL),no binding (tested: 10 ug/mL),,,,

# More lines, in order of falling Kd (Human IL-23), values ahead:
binding result (FLAG-tagged IL-12p40),binding result (FLAG-tagged IL-23p19),koff (IL-23 (HEK293E-derived)) [s⁻¹],Kd (Human IL-23) [nM],koff (Human IL-23) [s⁻¹],kon (Human IL-23) [M⁻¹ s⁻¹],binding result (IL-12p40 [1]),binding result (IL-23p19 [2]),binding result (IL-12p40 [3]),binding result (IL-23p19 [4]),binding result (IL-12p40 [5]),binding result (IL-23p19 [6]),Binder
,,0.000241,0.86,0.0004,465000,,,,,no binding (tested: 10 ug/mL),no binding (tested: 10 ug/mL),"6-22 (antibody, human IgG1, kappa, V domains shown, Humanized form of E11E7; also called humanized antibody 6-22) VH: QVQLQESGPGLVKPSETLSLTCTVSGFSISSYNVHWIRQPPGKGLEWIGVIWTGGSTDYNPSLKSRVTISRDTSKNQFSLKLSSVTAADTAVYYCARDKYGLFPGYFDYWGQGTLVTVSS VL: DIVMTQSPDSLAVSLGERATINCKPSQSLLSSGNRKNYLAWYQQKPGQPPKLLIYYASTRQSGVPDRFSGSGSGTDFTLTISSLQAEDVAVYYCLQHFNYPWTFGQGTKLEIKR"
,,0.000231,0.47,0.000202,429000,,,no binding (tested: 10 ug/mL),no binding (tested: 10 ug/mL),,,"20-4 (antibody, human IgG1, kappa, V domains shown, Humanized form of E11E7; also called humanized antibody 20-4) VH: EVQLQQWGAGLLKPSETLSLTCAVYGFSLISYNVHWIRQPPGKGLEWIGVIWTGGSTDYNSVLKSRVTISVDTSKNQFSLKLSSVTAADTAVYYCARDKYGLFPGYFDYWGQGTLVTVSS VL: EIVLTQSPATLSLSPGERATLSCKPSQSLLSSGNRKNYLAWYQQKPGQAPRLLIYYASTRQSGIPDRFSGSGSGTDFTLTISRLEPEDFAVYYCLQHFNYPWTFGGGTKVEIKR"
